Assays:
[1] = target: SsKDG-aldolase Variant 2 (T157V/D181Q/A198L) (Sulfolobus solfataricus); test: crystal structure; hanging-drop vapor diffusion at 18 °C; 11–15% PEG4K, 4–12% isopropanol, 0.1 M HEPES pH 5.9–6.8; unsoaked crystals, crystals soaked in 30 mM 3-deoxy-hexulosonic acid, Variant 2 also cocrystallized with 100 mM pyruvate
SsKDG-aldolase = target: T1, SsKDG-aldolase (Saccharolobus solfataricus, UniProt O54288, T157V/A198L); test: X-ray crystal structure; format: binding; settings: Variant 3; 2 min soak in 30 mM ligand; active site, covalent (Lys155 Schiff base)
T1 construct: full length, pET-3a in E. coli BL21 (DE3); heat treatment, anion exchange, gel filtration; no tag mentioned; 293 C-alpha positions; tetramer
Excerpt: X-ray crystal structure on SsKDG-aldolase | which enabled us to determine the structure of the […] complex

purified protein [2] = substrate: O=C[C@@H](O)CO; test: purified protein; settings: 50 mM sodium phosphate pH 6.0, 70 °C
purified protein [3] = substrate: O=C[C@H](O)CO; test: purified protein; settings: 50 mM sodium phosphate pH 6.0, 70 °C
[4] = substrate: CC(=O)C(=O)O; test: thiobarbituric acid assay of aldol product; format: biochemical, Saccharolobus solfataricus; settings: 50 mM sodium phosphate pH 6.0, 70 °C
Excerpt: thiobarbituric acid assay of aldol product on SsKDG-aldolase

[5] = Variant 3, near-saturating pyruvate
[6] = Variant 3, near-saturating D-glyceraldehyde
[7] = Variant 4, near-saturating pyruvate
[8] = Variant 4, near-saturating D-glyceraldehyde

Work on “SsKDG-aldolase Variant 2 (T157V/D181Q/A198L) (enzyme)” yielded a stoichiometry N [1] of 4.

`O=C(O)C(=O)C[C@@H](O)[C@@H](O)CO` [L-KDGlc] was tested, and the X-ray crystal structure (SsKDG-aldolase) was “which enabled us to determine the structure of the L-KDGlc complex”.

B1: SsKDG-aldolase (Saccharolobus solfataricus; A198L/T157V) (protein)
chain: PEIITPIITPFTKDNRIDKEKLKIHAENLIRKGIDKLFVNGTTGLGPSLSPEEKLENLKAVYDVTNKIIFQVGGLNLDDAIRLAKLSKDFDIVGIASYAPYYYPRMSEKHLVKYFKTLCEVSPHPVYLYNYPTATGKDIDAKVAKEIGCFTGVKDVIENIIHTLDYKRLNPNMLVYSGSDMLIATVASTGLDGNVALGSNYLPEVTVTIKKLAMERKIDEALKLQFLHDEVIEASRIFGSLSSNYVLTKYFQGYDLGYPRPPIFPLDDEEERQLIKKVEGIRAKLVELKILKE
notes: full length, pET-3a in E. coli BL21 (DE3); heat treatment, anion exchange, gel filtration; no tag mentioned; 293 C-alpha positions; tetramer
For B1, the Km (purified protein [2]; [5]) was 37.6 (±0.2) mM, the Vmax (purified protein [2]; [5]) was 6.1 µmol/min/mg and the Km (purified protein [3]; [5]) was 19.5 (±0.2) mM. For the same molecule, the Vmax (purified protein [3]; [5]) was 1.8 µmol/min/mg, the Km [4, 6] was 2.9 (±0.1) mM and the Vmax [4, 6] was 1.7 µmol/min/mg.

B2: SsKDG-aldolase (Saccharolobus solfataricus; A198F/Y103F/Y130F) (protein)
chain: PEIITPIITPFTKDNRIDKEKLKIHAENLIRKGIDKLFVNGTTGLGPSLSPEEKLENLKAVYDVTNKIIFQVGGLNLDDAIRLAKLSKDFDIVGIASYAPYFYPRMSEKHLVKYFKTLCEVSPHPVYLFNYPTATGKDIDAKVAKEIGCFTGVKDTIENIIHTLDYKRLNPNMLVYSGSDMLIATVASTGLDGNVAFGSNYLPEVTVTIKKLAMERKIDEALKLQFLHDEVIEASRIFGSLSSNYVLTKYFQGYDLGYPRPPIFPLDDEEERQLIKKVEGIRAKLVELKILKE
notes: as for B1
With B2 the Km (purified protein [2]; [7]) was 6.3 (±0.18) mM, the Vmax (purified protein [2]; [7]) was 0.06 µmol/min/mg and the Km (purified protein [3]; [7]) was 6.9 (±0.2) mM. The Vmax (purified protein [3]; [7]) was 0.11 µmol/min/mg, the Km [4, 8] was 0.3 (±0.04) mM and the Vmax [4, 8] was 0.09 µmol/min/mg.
